B1: Arabidopsis thaliana AtSLY1 (yeast bait fusion) [Arabidopsis thaliana] / A. thaliana RGA (yeast prey fusion) [Arabidopsis thaliana] (parent complex)
chain 1: MKRSTTDSDLAGDAHNETNKKMKSTEEEEIGFSNLDENLVYEVLKHVDAKTLAMSSCVSKIWHKTAQDERLWELICTRHWTNIGCGQNQLRSVVLALGGFRRLHSLYLWPLSKPNPRARFGKDELKLTLSLLSIRYYEKMSFTKRPLPESK
chain 2: MKRDHHQFQGRLSNHGTSSSSSSISKDKMMMVKKEEDGGGNMDDELLAVLGYKVRSSEMAEVALKLEQLETMMSNVQEDGLSHLATDTVHYNPSELYSWLDNMLSELNPPPLPASSNGLDPVLPSPEICGFPASDYDLKVIPGNAIYQFPAIDSSSSSNNQNKRLKSCSSPDSMVTSTSTGTQIGGVIGTTVTTTTTTTTAAGESTRSVILVDSQENGVRLVHALMACAEAIQQNNLTLAEALVKQIGCLAVSQAGAMRKVATYFAEALARRIYRLSPPQNQIDHCLSDTLQMHFYETCPYLKFAHFTANQAILEAFEGKKRVHVIDFSMNQGLQWPALMQALALREGGPPTFRLTGIGPPAPDNSDHLHEVGCKLAQLAEAIHVEFEYRGFVANSLADLDASMLELRPSDTEAVAVNSVFELHKLLGRPGGIEKVLGVVKQIKPVIFTVVEQESNHNGPVFLDRFTESLHYYSTLFDSLEGVPNSQDKVMSEVYLGKQICNLVACEGPDRVERHETLSQWGNRFGSSGLAPAHLGSNAFKQASMLLSVFNSGQGYRVEESNGCLMLGWHTRPLITTSAWKLSTAAY
B2: Arabidopsis thaliana AtSLY1 (yeast bait fusion) [Arabidopsis thaliana] / A. thaliana GAI (yeast prey fusion) [Arabidopsis thaliana] (parent complex)
chain 1: B1 chain 1
chain 2: MKRDHHHHHHQDKKTMMMNEEDDGNGMDELLAVLGYKVRSSEMADVAQKLEQLEVMMSNVQEDDLSQLATETVHYNPAELYTWLDSMLTDLNPPSSNAEYDLKAIPGDAILNQFAIDSASSSNQGGGGDTYTTNKRLKCSNGVVETTTATAESTRHVVLVDSQENGVRLVHALLACAEAVQKENLTVAEALVKQIGFLAVSQIGAMRKVATYFAEALARRIYRLSPSQSPIDHSLSDTLQMHFYETCPYLKFAHFTANQAILEAFQGKKRVHVIDFSMSQGLQWPALMQALALRPGGPPVFRLTGIGPPAPDNFDYLHEVGCKLAHLAEAIHVEFEYRGFVANTLADLDASMLELRPSEIESVAVNSVFELHKLLGRPGAIDKVLGVVNQIKPEIFTVVEQESNHNSPIFLDRFTESLHYYSTLFDSLEGVPSGQDKVMSEVYLGKQICNVVACDGPDRVERHETLSQWRNRFGSAGFAAAHIGSNAFKQASMLLALFNGGEGYRVEESDGCLMLGWHTRPLIATSAWKLSTN

Variants of B1 are the subject of one assay. Put plainly: yeast 2-hybrid; read off a plot.
For chain 1 K126N, the response was ~3.9 β-galactosidase units.
Consider chain 1 K126T, for which the response was ~0.6 β-galactosidase units.
The same measure, in the same setting: the value for chain 1 P114S was ~3.6 β-galactosidase units; that for chain 1 P114L was ~1.5 β-galactosidase units; that for chain 1 E138K was ~3.7 β-galactosidase units.
On the same count and under the same terms, the value for chain 1 H104Y was ~55 β-galactosidase units; that for chain 1 T128S was ~1.3 β-galactosidase units; that for chain 1 T128A was ~24 β-galactosidase units.

The variants in a further assay derive from B2. Put plainly: pull-down (IP: His, immunoblot); parent: 1. Background: A western blot detects proteins with antibodies after separation by electrophoresis.
Consider chain 1 G84D, for which the ratio to parent was 1.41.
On the same count and under the same terms, to chain 1 T128A belongs 2.36.
chain 1 H104Y: the ratio to parent amounted to 3.05.

In the next assay the parent is B2. The assay can be described thus: yeast 2-hybrid; parent: 0.3; read off a plot.
Turning to chain 1 E138K, the response was ~15 β-galactosidase units.
For chain 1 P114L, the response was ~37 β-galactosidase units.
The same measure, in the same setting: the value for chain 1 P114S was ~41 β-galactosidase units; that for chain 1 K126N was ~51 β-galactosidase units.
Same read-out and setting: the value for chain 1 K126T was ~24 β-galactosidase units.
Turning to chain 1 K126E, the response is ~19 β-galactosidase units.
With chain 1 T128S, the response was ~44 β-galactosidase units.
Still for that read-out and setting: the value for chain 1 T128A was ~86 β-galactosidase units; that for chain 1 H104Y was ~120 β-galactosidase units.

The variants in a further assay derive from B2. The assay can be described thus: yeast 2-hybrid; parent: 0.35; read off a plot.
For chain 1 E138K, the response is ~17 β-galactosidase units.
Same read-out and setting: to chain 1 P114L belongs ~25 β-galactosidase units; to chain 1 T128A, chain 1 E138K, ~110 β-galactosidase units; to chain 1 H104Y, chain 1 E138K, ~160 β-galactosidase units.
On the same count and under the same terms, the value for chain 1 P114L, chain 1 E138K was ~77 β-galactosidase units.
Still for that read-out and setting: to chain 1 T128A belongs ~77 β-galactosidase units.
In the case of chain 1 H104Y, the response is ~99 β-galactosidase units.

The variants in the next assay derive from B2. The assay can be described thus: pull-down (IP: His, immunoblot); without GST-GID1C, without GA3 (GAI in A Form); parent: 1.
On to chain 1 E138K, for which the ratio to parent amounted to 1.86.
Consider chain 1 P114L, for which the ratio to parent was 1.89.
Consider chain 1 T128A, for which the ratio to parent was 2.27.
Same read-out and setting: to chain 1 H104Y belongs 5.65.

Variants of B2 are the subject of a further assay. The assay can be described thus: pull-down (IP: His, immunoblot); with GST-GID1C, with GA3 (GAI in A + A' Forms); parent: 2.41.
For chain 1 E138K, the response is 3.88 relative anti-MBP band intensity (SLY1 without GST-GID1C and GA3 = 1.00).
For the variant chain 1 P114L, the response was 7.38 relative anti-MBP band intensity (SLY1 without GST-GID1C and GA3 = 1.00).
Still for that read-out and setting: the value for chain 1 T128A was 9.37 relative anti-MBP band intensity (SLY1 without GST-GID1C and GA3 = 1.00); that for chain 1 H104Y was 11.8 relative anti-MBP band intensity (SLY1 without GST-GID1C and GA3 = 1.00).

A further assay covers variants of B2. Put plainly: yeast 2-hybrid; parent: 0.35; read off a plot. The source holds these as a separate data set.
As to chain 1 P114L, the response is ~63 β-galactosidase units.
Take chain 1 P114A: the response was ~89 β-galactosidase units.
Same read-out and setting: to chain 1 P114T belongs ~34 β-galactosidase units; to chain 1 P114S, ~55 β-galactosidase units; to chain 1 P114R, ~94 β-galactosidase units.
The same measure, in the same setting: the value for chain 1 P114H was ~77 β-galactosidase units.

Variants of B2 are the subject of a further assay. Put plainly: yeast 2-hybrid; parent: 0.38; read off a plot.
Turning to chain 1 K126R, the response was ~0.26 β-galactosidase units.

Variants of B2 are the subject of the next assay. Put plainly: yeast 2-hybrid; parent: 0.3; read off a plot. The source holds these as a separate data set.
chain 1 H104F: the response was ~100 β-galactosidase units.
chain 1 H104Y: the response was ~110 β-galactosidase units.

(Values after paper PMC10724065, “Evolution of a plant growth-regulatory protein interaction specificity” (Nature Plants, 2023).)
